Experiment: yeast display, Sf9 membrane polyspecificity reagent, FACS + sequencing; frameworks hold sequencing errors
How it was run: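 A nanobody's polyreactivity label depends on the gate it was sorted from. Yeast display cells were stained with 10% biotinylated, detergent-solubilized Sf9 membrane reagent for 1 hour at 4 °C, enriched on streptavidin microbeads and sorted by FACS. The low and high (top ~1%) gates were set on anti-HA fluorescence for expression and streptavidin fluorescence for reagent binding.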

| Sequence | polyreactivity (PSR sort gate) |
| --- | --- |
| QVQLVESGGGLVQAGGSLRLSCAASGSIFTGYAMGWYRQAPGKDRELVAAISWRGGGTYYADSVQGRFTISRDNAKNTVYLQMNSQKPEDTAVYDCAAVTKFGQYAPGSKGYGYWGQATQVTVSS | low polyreactivity |
| QVQLVESGGGLVQAGGSLRLSCAASGSIFTGYAMGWYRQAPGKDRELVAGISWGGTSTYYADSVKGRFTISRDTAKNTVYLQMNSLKPEDTAVYYCSAVRGKYGYLTTPYWFDYWGQGTQVTVSS | high polyreactivity |
| QVQLVESGGGLVQAGGSLRLSCAASGSIFTGYTMGWYRPAPGKEREFVAAIRATGGSTYYADSVKGRFTISRDNAKNTVYLQMNSLKPEDTAVYYCAVRSGVGSVRKRYGYWGQGTQVTVSS | high polyreactivity |
| QVQLVESGGGLVQAGGSLRLSCAASGSIFTHNAMGWYRQAPGKERELVAAISSGGSTNYADSVKGPFTISRDNAKNTVYLQMNSLKPEDTAVYYCAKSIDGWYWRRRRYDYWGQGTQVTVSS | low polyreactivity |
| QVQLVESGGGLVQAGGSLRLSCAASGSIFTHYPMGWYRQAPGKERELVAAISRRGGSTYYADSVKGRFTISRDNAKNTVYLQMNSLKPEDTAVYYCAKSPDTAKEYDYWGQGTQVTVSS | high polyreactivity |
| QVQLVESGGGLVQAGGSLRLSCAASGSIFTKYAMGWYRQAPGKEREFVAAITLSGGSTYYADSVKGRFTISRDNAKNTVYLQMNSLKPEDTAVYYCNAAYTYVTAWYYYWGQGTQVTVSS | high polyreactivity |
| QVQLVESGGGLVQAGGSLRLSCAASGSIFTLYAMGWYRQAPGKEREFVAGISFSTGRTYYADSVKGRFSISRDNAKNTVYLQMNSLKPEDTAVYYCAAYVSHYWYGVYRDGYWGQGTQVTVSS | low polyreactivity |
| QVQLVESGGGLVQAGGSLRLSCAASGSIFTNAMGWYRQAPGKERELVAAISSSGGSTYYADSVKGRFTISRDNAKNTVYLQMNSLKPDDTAVYYCAADHYGCRDFWGQGSQVTVSS | low polyreactivity |
| QVQLVESGGGLVQAGGSLRLSCAASGSIFTNAMGWYRQAPGKETELVAAISYSGGSTYYADSVKGRFTISRDNAKNTVYLQMNSLKREDTAVYYCAAEAWFDGIWGDYWGQGTQVTVSS | high polyreactivity |
| QVQLVESGGGLVQAGGSLRLSCAASGSIFTPYAMGRYRQAPGKERELVAAISRSGGRTYYADSVKGRFTISRDNAKNTVYLQMNSLKPEDTAVYYCNAGAGQRVSGHSFEYWGQGTQVTVSS | high polyreactivity |
| QVQLVESGGGLVQAGGSLRLSCAASGSIFTPYAMGWYRQAPGKESELVAAIRSGTSTNYADSVKGRFTISRDNAKNTVYLQMNSLKPEDTAVYYCAAVYWSRFYVRYDYWGQGTQVTVSS | high polyreactivity |
| QVQLVESGGGLVQAGGSLRLSCAASGSIFTPYTMGWYRQAPGKERELVAAITGSAGSTYYADSVKGRFTISRDNAKNTVYLQMNSLKPEDTAVYYCAAAVWGVYQWYYYWGQGTQVTVSS | high polyreactivity |
| QVQLVESGGGLVQAGGSLRLSCAASGSIFTPYVMGWYRQAPGKEREFVAAITQRGGRTYYADSVKGRFTISRDNAKNTVYLQMNSLKPEDTAVYYCAKTSVSRTYHRSAYDYWGQGTQVTVSS | high polyreactivity |
| QVQLVESGGGLVQAGGSLRLSCAASGSIFTRNAMGWYRPAPGKERELVAAIRWNGGRTYYADSVKGRFTISRDNAKNTVYLQMNSLKPEDTAVYYCAADYYQRRYVPEYDYWGQGTQVTVSS | low polyreactivity |
| QVQLVESGGGLVQAGGSLRLSCAASGSIFTRYAMGWYRQAPGKERELVAAIRTSGGSTYYADSVKGRFTISRDNAKNTVYLQMNSLKPEDTAVYYCARRYYKSNFYYWGQGTQVTVSS | high polyreactivity |
| QVQLVESGGGLVQAGGSLRLSCAASGSIFTRYAMGWYRQAPGKERELVAAITASGGRTYYADSVKGRFTISRDNAKNTVYLQMNSLKPEDTAVYYCNTYWRFTSQLPYDYWGQGTQVTVSS | high polyreactivity |
| QVQLVESGGGLVQAGGSLRLSCAASGSIFTRYTMGWDRQAPRKERELVATNSSRGDGTYYADSVKGRFTISRDNAKNTVYLQMNSLKPEDTAVYYCSARYRRVLSGYGYWGHGTQVTVSS | high polyreactivity |
| QVQLVESGGGLVQAGGSLRLSCAASGSIFTRYVMGWYRQAPGKERELVAAISGRGSSTYYADSVKGRFTISRDNAKNTVYLQMNSLKPEDTAVYYCAAEIVVFYSEGQRNTFYYWGQGTQVTVSS | high polyreactivity |
| QVQLVESGGGLVQAGGSLRLSCAASGSIFTSNVMAWYRQAPGKERELVAAITITGTTTYADSVKGRFTISRDNAKNTVYLQMNSLIPEDTAVYYCAKDPVELSPADWRADYDYWGQGTQVTVSS | low polyreactivity |
| QVQLVESGGGLVQAGGSLRLSCAASGSIFTTYAMGWYIQAPGKERELVAVISRRGGSTYYADSVKGRFTISRDNAKNTDYLQMNSLKPEDTAVYFCNAAYVWYRIFVRRDYWGQGTQVTVSS | high polyreactivity |
| QVQLVESGGGLVQAGGSLRLSCAASGSIFTTYAMGWYREAPGKERELVAAITDTSSTNYADSVKGRFTISRDNAKKTVFLQMNSLKPEDTAVYYCAVDLGYEYDWGQGTQVTVSS | low polyreactivity |
| QVQLVESGGGLVQAGGSLRLSCAASGSIFTTYAMGWYRQAPGKERELVAAISSGGGTNYADSVKGRFTISRDNAKNTVYLQMNSLKPEDTAVYYCNKRYYRLQLHNAYGATPRRNYWGQGTQVTVSS | low polyreactivity |

| Sequence | polyreactivity (PSR sort gate) |
| --- | --- |
| QVQLVESGGGLVQAGGSLRLSCAASGSIFTVNAMGWYRQAPGKERELVAAISSGGSTHYADSVKGRFTISRDNAKNTVYLQMNSLKPEDTAVYYCAAEVSYYLNEFDYWGQGTQVTVSS | low polyreactivity |
| QVQLVESGGGLVQAGGSLRLSCAASGSIFTVYAMGWYRQAPGKERELVASISKSGGSTYYADSVKGRFTISRDNAKNTVYLQMNSLKPEDTAVYYCAAESGRTYSHRHYDSWGQGTQVTVSS | low polyreactivity |
| QVQLVESGGGLVQAGGSLRLSCAASGSIFTVYGMGWYRQAPGKERELVAAISRSGGSTYYADSVKGRFTISRDNAKNTVYLLMNSLKPEDTAVYYCAADVYRTWFWWFDYWGQGTQVTVSS | high polyreactivity |
| QVQLVESGGGLVQAGGSLRLSCAASGSIFTWNAMGWYSQAPGKERELVAAISWIGDSTYYADSVKGRFTISRDNAKNTVYLQMNSLKPEDTAVYYCAAEYAQGSRELESWGQGTQVTVSS | low polyreactivity |
| QVQLVESGGGLVQAGGSLRLSCAASGSIFTWYAMGWYRQAPGKERELVAAITTSGGSTYYADSVKGRFTISRDNAKNTVYLQMNSLKPEDTAVYYCAKDGDYLFYYYGYDYWGQGTQVTVSS | low polyreactivity |
| QVQLVESGGGLVQAGGSLRLSCAASGSIFTYAMGWYRQAPGKERELVAAITYSGGRTDYADSVKGRFTISRDNAKNTVYLQMNSLKPEDTAVYYCAVRARPYPYYGALMYYWGQGTQVTVSS | low polyreactivity |
| QVQLVESGGGLVQAGGSLRLSCAASGSIFTYNAMGWYRQAPGKERELVATISYSGGSTDYADSVKGRFTISRDNAKNTVYLQMNSLKPEDTAVYYCNKEYGYPPIWQDYGYDSWGQGTQVTVSS | high polyreactivity |
| QVQLVESGGGLVQAGGSLRLSCAASGSIFTYNVMGWYRQAPGKERELVASISWSGGRTYYADSVKGRFTISRDYAKNTVYLQMNSLKPEDTAVYYCNNVRPPVYFPNRDYWGQGTQVNVSS | low polyreactivity |
| QVQLVESGGGLVQAGGSLRLSCAASGSIFTYYAMGWYRQAPGKERELVAAISGSGGRTYYADSVKGRFTISRDNAKNPVYLQMNSLKPEDTAVYYCAVRSYRRFTHLYYRYDYWGQGTQVTVSS | high polyreactivity |
| QVQLVESGGGLVQAGGSLRLSCAASGSIFTYYAMGWYRQAPGKERELVAAISSDGSTTYADSVKGRFTISRDNAKNTVYLQMNSLKPEDTAVLLLQRSGLRRSGVWFDYWGQGTQVTVSS | low polyreactivity |
| QVQLVESGGGLVQAGGSLRLSCAASGSIFTYYVRGWYRQAPVKERELVAGISRRGSTYYADSVKGRFTISRDNAKNTVYLQMNSLKQEDTAVYYCAAEPWVGTLYPRVGYWGQGTQVTVSS | low polyreactivity |
| QVQLVESGGGLVQAGGSLRLSCAASGSIFVANAMGWYRPAPGKERELVAAISSGGSTYYADSVKGRFTISRDNAKNTVYLQMNSLKPEDTAVYDCAAGQPNLVVGHYYWGQGTQVTVSS | low polyreactivity |
| QVQLVESGGGLVQAGGSLRLSCAASGSIFVDNAMGWYRQATGKERELVAAISASGVTTYYADSVKGRFTISRDNAKNTVYLQMNSLKPEDTAVYYCNADYGSDDDVVRYDYWGQGTQVTVSS | low polyreactivity |
| QVQLVESGGGLVQAGGSLRLSCAASGSIFVEYAMGWYRQAPGKERELVAGISSGGITSYADSVKGRFTISRDNAKNTVYLQMNSLKPEDTAGYYCATDPYKWFYSSYYLLQEVEYWGQGTQVTVSS | low polyreactivity |
| QVQLVESGGGLVQAGGSLRLSCAASGSIFVFNTMGWYRQAPGKERELVAAISDRGTRTYYADSVKGRFTISRDNAKNTVYLQMNSLKPEDTAVYYCATRVYFSPYRYDYWGQGTQVTVSS | high polyreactivity |
| QVQLVESGGGLVQAGGSLRLSCAASGSIFVFYAMGWYRQAPGKERELVAAINDGGSTHYADSVKGRFTISRDNAKNTVYLQMNSLKPEDTAVYYCAAEYVWYRYPDYWGAYDYWGQGTQVTVSS | low polyreactivity |
| QVQLVESGGGLVQAGGSLRLSCAASGSIFVGNAMGGYRQAPGKERELVAAITSSGGRTYYADSVKGRFTISRDNAKNTVYLQMNSLKPEDTAVYYCNTSRTRRFSLWAYDYWGQGTQVTVSS | high polyreactivity |
| QVQLVESGGGLVQAGGSLRLSCAASGSIFVGNAMGWYRPAPGKERELVAAITGRGSRTYYADSVKGRFTLSRDNAKNTVYLQMNSLKPEDTAVYYCAARYTNYGGFYWGQGTQVTVSS | high polyreactivity |
| QVQLVESGGGLVQAGGSLRLSCAASGSIFVGNAMGWYRQAPGKERELVAAISRSGGRTYYADSVKRRFTISRDNAKITVYLQMNSLKPEHTAVYYCNAYGWEQLQMDSWGQGTQVTVSS | high polyreactivity |
| QVQLVESGGGLVQAGGSLRLSCAASGSIFVGNAMGWYRQAPGKERELVAAISSSGGRTFYADSVKGRFTISRDNAKNTVYLQMNSLKPEDTAVYYCAAVYTHWQQRMDYWGQGTQVTVSS | high polyreactivity |
| QVQLVESGGGLVQAGGSLRLSCAASGSIFVGNAMGWYRQAPGKQRELVATISWSGGSTYYADSVKGRFTISRDNAKNTVYLQMNSVKPEDTAVYYCNAVYVSSFTGHDYWGQGTQVTVSS | low polyreactivity |

Source: the nanobody polyreactivity screen of Harvey et al. (2022)
